The record followed here is article PMC7665024, “Anti-apoptotic BCL-2 regulation by changes in dynamics of its long unstructured loop” (Communications Biology, 2020).

Series [1] concerns BCL-2 EEE (T69E/S70E/S87E; EEE-PB). Briefly: FRET association with Pacific Blue-labeled BCL-2 EEE. The conditions noted are these: Fig. 1d.
Series [2] relates to BAX-induced MOMP, isolated mitochondria. Briefly: In vitro cytochrome c release assay, isolated mitochondria (BCL-2 mutants). Type of series: biochemical, mouse. The note with it: Bax+BimBH3 = 100, mean of n = 6. From the text:
To verify this implication, we performed in vitro cytochrome c release assay using isolated mitochondria. […] Lane 3 (Fig. 2a) is a positive control for the cytochrome c release assays. […] (More experimental results in support of the observed BCL-2 activity are given in Supplementary Fig. 3.)
Fig. 2 In vitro assays for evaluating BCL-2 activity. a Cytochrome c release assay with various BCL-2 mutants at varying concentrations. All of the release amounts are normalized to the result caused by the BimBH3-induced BAX activation (lane 3). […] GUVs provide a MOM-like environment devoid of endogenous mitochondrial proteins.
A Dounce homogenizer was used with 20 strokes to homogenize mouse liver tissue (0.2 mg). The mitochondria fraction was separated using centrifugation according to the Mitochondria Isolation Kit (Thermo Scientific). Mitochondria Assay Buffer A (MAB A) (200 mM mannitol, 68 mM sucrose, 10 mM HEPES, 110 mM KCl, 1 mM EDTA, […], 0.1% BSA, protease inhibitor) was used to wash the mitochondria fraction, followed by centrifugation at 12,000 × g. The pellet was collected and resuspended using enough MAB B (i.e., MBA A without 0.1% BSA) and then quantified by bradford assay (Bio-Rad) to yield a final protein content of the mitochondrial fraction ~3 mg/mL. The final mitochondria fraction was placed on ice for further downstream processing or stored at −80 °C with additional 300 mM trehalose for future use[38]. […] The mixture was then incubated with BAX (0.1 μM) and 10 μL of the mitochondrial fraction ([…]) for 0.5 h at 37 °C. Final volume was adjusted to 30 μL. Following centrifugation at 12,000×g for 10 min, the supernatant was subjected to subsequent immunoblotting (IB). Quantification of IB was done using ImageJ software (version 1.49, NIH). The fraction of cytochrome c released (%) is calculated by (I–I0)/(Imax–I0)×100%, where Imax and I0 are the analyzed intensities of cytochrome c with and without activated BAX, respectively.
Samples were resolved by SDS–PAGE (15%) and electroblotted onto a 0.45 μm PVDF membrane (GE Healthcare). Primary antibodies used in this study included rabbit anti-BAX N20 (Santa Cruz Biotechnology), mouse anti-BCL-2(C2) (Santa Cruz Biotechnology) and mouse anti-cytochrome c antibodies (clone 7H8.2C12, Millipore). Detection was achieved using sheep anti-mouse IgG HRP (GE Healthcare) and donkey anti-rabbit IgG HRP (GE Healthcare) secondary antibodies. Proteins were visualized by 4CN Plus Chromogenic Substrate (PerkinElmer).

For another series, the system named is trypsin. Briefly: Limited proteolysis by trypsin. The conditions noted are these: BCL-2 20 μM, trypsin 0.04-9.44 μM, 1 h, room temperature, SDS-PAGE. The protocol:
Fig. 3 Structural differences between WT and EEE. a An illustration of mutation sites prepared for spin-labeling ESR studies. b Distance distributions of various double-spin-labeled BCL-2 (WT or EEE) mutants are determined from the experimental DEER data. […] As highlighted, the displacements of α1 and α2 account for the major differences. d An illustration highlighting the positions of α2–α7 and the binding groove. Structures of WT and EEE are colored as in c. Helices α4–α7 change little between the WT and EEE. The displacement of α2 is critical to the change in the local environment of the binding groove. e Limited proteolysis of BCL-2 (20 μM) analyzed on SDS–PAGE. Trypsin concentrations were 0.04, 0.11, 0.34, 1.03, 3.11, 9.44 μM. Incubation time was 1 h at room temperature. It confirms that tertiary conformations of WT versus EEE are indeed different.
BCL-2 conformational change was assessed by limited proteolysis using trypsin (MERCK). In brief, 5 µg BCL-2 (WT or EEE) was digested at enzyme/substrate ratios ranging from 1:2 to 1:461 for 1 h at room temperature. Proteolysis was quenched by adding 1 mM PMSF, and then samples were confirmed by SDS–PAGE with Coomassie blue staining.

The subject of series [3] is BAX. Briefly: FRAP-GUV pore-forming activity of BAX, 70-kDa F-dextran. On the set-up: FRAP pore-forming activity / FRAP pore-forming activity, average / p (FRAP-70k-p), Average: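 unitless ratio D/D0 relative to diffusion coefficient after Triton X-100 disruption of GUVs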. Type of series: biochemical, mouse. The protocol: (§1) Briefly, GUVs were incubated with the proteins of interest over a period of time (Fig. 2c), followed by photobleaching within individual GUVs. A series of fluorescent images were collected over time after the photobleaching and then analyzed to yield the diffusion coefficients of Fluor molecules (including FITC-labeled 70-kDa, and Alexa-647-labeled 10-kDa probes) using the theoretical approach detailed in the “Methods” section. As Fluor molecules are homogeneously dispersed in the solution (outside and inside of GUVs) before the incubation with BAX and activators, it is reasonable to expect that the larger the induced pore area on the surface of a GUV, the greater the diffusion coefficient. Thus, the diffusion coefficient is directly related to the pore-forming activity of activated BAX. As the pore-forming activity is proportional to the concentration of BAX[18], we fixed the total amount of added BAX in all of the measurements below (see the “Methods” section).
(§2) Full-length BAX and variants were prepared as previously described[18],[22],[35]. Mouse BAX was cloned into pTYB1 vector (New England Biolabs, Inc.), resulting pTYB1-BAX construct. The pTYB1-BAX construct encoding a fusion protein of BAX with chitin-binding peptide was separated by a self-cleavable intein tag to obtain a full-length BAX. Wild-type BAX has two native cysteine residues at 62 and 126. Cysteine-free construct (C62S/C126S) was used to prepare single-cysteine BAX variants for conjugating fluorescence probes (e.g., BAX136C in Fig. 1d). Point mutations of recombinant BAX were generated using a QuikChange mutagenesis kit. Proteins were expressed in E. coli (ER2566) strain (New England Biolabs, Inc.) and purified without detergent. Bacterial cultures were grown at 37 °C in LB medium containing 0.1 g/L ampicillin to reach an OD600 of 1.0. BAX expression was induced by addition of 0.3 mM IPTG at 30 °C for 6−8 h. The cells were harvested by centrifugation and resuspended in ice-cold lysis buffer (20 mM Tris–HCl, pH 7.0, 500 mM NaCl and 1 mM PMSF). The resuspended pellet was sonicated on ice for 30 min, followed by centrifugation at 12,800 × g for 50 min. […] The resins were incubated in a pre-equilibrated buffer (20 mM sodium phosphate, pH 8.0, 100 mM NaCl, 60 mM dithiothreitol (DTT)) for 48 h. Proteins were eluted from column and further purified by a SEC using a HiLoad 16/60 Superdex 75 column (GE Healthcare) pre-equilibrated in PB buffer (20 mM sodium phosphate, pH 7.4, 100 mM NaCl). Purified proteins were confirmed by SDS–PAGE with Coomassie blue staining. Protein concentration was determined using absorption spectroscopy at 280 nm.
(§3) All lipids used were purchased from Avanti Polar Lipids. […] Texas Red 1,2-dihexadecanoyl-sn-glycero-3-phosphoethanolamine (TR-DPPE) (Invitrogen) of 0.05% was added to the lipid mixture for virtualization of GUV[18],[26],[27]. GUVs were prepared with the gel-assisted swelling on a polyvinyl alcohol (PVA) gel[39]. A 5% (w/w) solution of PVA (MW 145,000) was prepared by stirring PVA in ddH2O while heating at 90 °C. PVA solution was spread on a microscope coverslip (18 × 18 mm, Matsunami, Japan) and then dried at 50 °C. Lipid mixture (1 mg/mL) dissolved in chloroform were spread on the dry PVA film and placed under vacuum for 30 min to evaporate the solvent. Lipids were rehydrated for 1 h in PB buffer. The resulting GUVs were transferred to an Eppendorf tube using blunt tips.
(§4) FRAP measurements were performed as described previously. […] All reactions were at room temperature and the final volume was 200 μL.

For series [4], the system named is BAX. Briefly: FRAP-GUV pore-forming activity of BAX, 10-kDa F-dextran. The note with it: 10 kDa F-dextran. On the set-up: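 unitless ratio D/D0 relative to diffusion coefficient after Triton X-100 disruption of GUVs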. Type of series: biochemical, mouse. As to the method:
as §1, §2, §3, §4

As for “BimBH3-AL488: BimBH3 peptide labeled with Alexa Fluor 488 at C-terminal cysteine (FRET acceptor)”, the “molecular association with EEE compared with S70E or WT (in words)” value in series [1] is given as “associated with EEE-PB more potently than with S70E-PB or WT-PB”.

Take “S70E: less potent phosphomimetic mutant S70E of TM-truncated BCL-2”: the “Cytochrome c release, Average” value in series [2] (BAX+BimBH3 + 2uM BCL-2 protein) worked out at 76.6421; in series [2] (BAX+BimBH3 + 4uM BCL-2 protein), 24.3731; in series [2] (BAX+BimBH3 + 6uM BCL-2 protein) it was 15.7119.

As to “WT: TM-truncated wild-type human BCL-2 (BCL-2-ΔTM, residues 1–217, C-terminal His6-tag)”, the “Cytochrome c release, Average” value in series [2] (BAX+BimBH3 + 2uM BCL-2 protein) worked out at 77.3682; in series [2] (BAX+BimBH3 + 4uM BCL-2 protein), 50.0022; in series [2] (BAX+BimBH3 + 6uM BCL-2 protein), 21.4104. Also, the “susceptibility to trypsin proteolysis (in words)” value in the series on trypsin is “susceptible to proteolysis and rapidly degraded to fragments”.

B1: EEE-PB: EEE labeled with Pacific Blue (FRET donor) (conjugate)
chain: MAHAGRTGYDNREIVMKYIHYKLSQRGYEWDAGDVGAAPPGAAPAPGIFSSQPGHTPHPAASRDPVAREEPLQTPAAPGAAAGPALEPVPPVVHLTLRQAGDDFSRRYRRDFAEMSSQLHLTPFTARGRFATVVEELFRDGVNWGRIVAFFEFGGVMCVESVNREMSPLVDNIALWMTEYLNRHLHTWIQDNGGWDAFVELYGPSMRPLFDFSWLSL
modifications: Pacific Blue (maleimide) on the native cysteine 158; left off: His6, C-terminal, state not stated
For the molecule B1, the “pore-forming activity / effect on BAX-induced membrane pores on GUV (in words)” value with BAX [3] (10- and 70-kDa F-dextran, BAX 1 µM, BimBH3 2 µM, BCL-2 1 µM, ABT-199 30 µM, room temperature, Fig. 2c) is “The ability of EEE to sequester BimBH3 is similar to that of EEE-PB”. For the same molecule, the “FRAP pore-forming activity, average” value with BAX [3] (70 kDa F-dextran, mean of trials) is given as 0.000389; with BAX [4] (mean of trials), 0.001441. For the same molecule, the FRAP pore-forming activity is given as 0.00033 in the series on BAX [3] (70 kDa F-dextran, trial1); 0.000165 in the series on BAX [3] (70 kDa F-dextran, trial2); 0.000165 with BAX [3] (70 kDa F-dextran, trial3); 0.00033 in the series with BAX [3] (70 kDa F-dextran, trial4); 0.00033 in the series on BAX [3] (70 kDa F-dextran, trial5); 0.000165 with BAX [3] (70 kDa F-dextran, trial6). For the same molecule, the FRAP pore-forming activity is on record as 0.00033 with BAX [3] (70 kDa F-dextran, trial7); 0.0006601 in the series on BAX [3] (70 kDa F-dextran, trial8); 0.0008251 with BAX [3] (70 kDa F-dextran, trial9); 0.000495 in the series with BAX [3] (70 kDa F-dextran, trial10); 0.000495 in the series with BAX [3] (70 kDa F-dextran, trial11); 0.00033 in the series with BAX [3] (70 kDa F-dextran, trial12). Also, the FRAP pore-forming activity with BAX [3] (70 kDa F-dextran, trial13) is on record as 0.00033; in the series on BAX [3] (70 kDa F-dextran, trial14) it was 0.000495; with BAX [4] (trial1), 0.0008772; in the series on BAX [4] (trial2), 0.0007018; with BAX [4] (trial3) it was 0.0003509; in the series on BAX [4] (trial4), 0.0008772. Further, the FRAP pore-forming activity in the series on BAX [4] (trial5) came to 0.001228; with BAX [4] (trial6), 0.0007018; in the series with BAX [4] (trial7), 0.001228; in the series with BAX [4] (trial8) it was 0.002456; in the series on BAX [4] (trial9) it was 0.002807; in the series on BAX [4] (trial10), 0.001579. Further, the FRAP pore-forming activity in the series with BAX [4] (trial11) was 0.002105; with BAX [4] (trial12) it was 0.001404; with BAX [4] (trial13) it was 0.001579; with BAX [4] (trial14), 0.002281.
